Laboratory results: paper doi:10.1101/2023.05.26.542392

Biological target: R203M mutant of full-length SARS-CoV-2 nucleocapsid (R203M-FLN) (SARS-CoV-2)
Assay: AUC

How did the stoichiometry N turn out when “R203M mutant of full-length SARS-CoV-2 nucleocapsid (R203M-FLN) (natural protein)” was run?
Its stoichiometry N is 2.
